Residue numbers refer to the chain shown, from its start. Starred links: 1 amine or outer side, 2 acyl side, 3 side chain; linkers in the order of their positions; H or OH if unused. Non-standard residues stand in square brackets, D forms with d. Groups on a side chain read outwards from the residue. No end group written: not given here. *: point of attachment. Butyryl(4-SO2NHCO(CH2)16Tz) = O=C(CCCCCCCCCCCCCCCCc1nnn[nH]1)NS(=O)(=O)CCCC(=O)*; Decanoyl(10-(4-HOOC-PhO)) = O=C(O)c1ccc(OCCCCCCCCCC(=O)*)cc1; C20 diacid = O=C(O)CCCCCCCCCCCCCCCCCCC(=O)*; C18 diacid = O=C(O)CCCCCCCCCCCCCCCCC(=O)*; C16 diacid = O=C(O)CCCCCCCCCCCCCCC(=O)*; γGlu = O=C(O)[C@H](CCC(=O)[*:2])N[*:1]; εLys = N[C@@H](CCCCN[*:1])C(=O)[*:2]; Trx = NC[C@H]1CC[C@H](C(=O)O)CC1; AEEA = NCCOCCOCC(=O)O; Aib = CC(C)(N)C(=O)O
T1: human amylin-3 (a) receptor (human, UniProt P30988 25-474; O60896 24-148)
T1 sequence (looked up) 1: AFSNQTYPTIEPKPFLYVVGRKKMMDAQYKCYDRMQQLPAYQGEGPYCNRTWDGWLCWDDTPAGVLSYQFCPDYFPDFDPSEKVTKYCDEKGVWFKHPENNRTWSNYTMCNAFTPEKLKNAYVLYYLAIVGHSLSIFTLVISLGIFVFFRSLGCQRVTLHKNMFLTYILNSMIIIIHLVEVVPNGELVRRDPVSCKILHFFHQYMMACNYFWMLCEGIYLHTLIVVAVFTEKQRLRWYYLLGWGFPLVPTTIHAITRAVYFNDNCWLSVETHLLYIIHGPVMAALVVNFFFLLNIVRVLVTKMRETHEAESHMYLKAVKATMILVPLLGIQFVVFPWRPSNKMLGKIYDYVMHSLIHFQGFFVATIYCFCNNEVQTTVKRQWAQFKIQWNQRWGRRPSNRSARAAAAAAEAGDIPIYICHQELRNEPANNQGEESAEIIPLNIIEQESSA
T1 sequence (looked up) 2: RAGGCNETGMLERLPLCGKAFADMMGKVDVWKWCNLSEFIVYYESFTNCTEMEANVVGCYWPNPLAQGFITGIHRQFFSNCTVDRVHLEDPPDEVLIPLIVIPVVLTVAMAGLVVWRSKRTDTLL

B1: Comparator compound 0185 (peptide)
peptide: H[Aib]EGTFTSDVSSYLEGQAAKEFIAWLVRGRK([εLys-AEEA-AEEA-γGlu-C18 diacid])GGEASELSTAALGRPSAELHELATLPRTETGSGSP-NH2
B2: Comparator compound 0167 (peptide)
peptide: H[Aib]EGTFTSDVSSYLEEQAAREIFAWLVRGRK([AEEA-AEEA-γGlu-Trx-C20 diacid])GGGGEASELSTAALGRLSAELHELATLPRTETGSGSP-NH2
B3: Comparator compound 0015 (peptide)
peptide: H[Aib]EGTFTSDVSSYLEGQAAK([AEEA-AEEA-γGlu-C18 diacid])EFIAWLVRGRGGQEPGQEPCNTATCATQRLAEFLRHSSNNFGPILPPTNVGSNTP-NH2
modifications: ends and bridges not checked
B4: Comparator compound 0164 (peptide)
peptide: H[Aib]EGTFTSDVSSYLEGQAAKEIFAWLVRGRK([εLys-AEEA-AEEA-γGlu-C18 diacid])GGEASELSTAALGRLSAELHELATLPRTETGSGSP-NH2
B5: Comparator compound 0016 (peptide)
peptide: H[Aib]EGTFTSDVSSYLEGQAAK([AEEA-AEEA-γGlu-C18 diacid])EFIAWLVRGRGGQEPGQEPK([AEEA-AEEA-γGlu-C18 diacid])CNTATCATQRLAEFLRHSSNNFGPILPPTNVGSNTP-NH2
modifications: ends and bridges not checked
B6: Comparator compound 0192 (peptide)
peptide: H[Aib]EGTFTSDVSSYLEEQAAREFIAWLVRGRK([AEEA-AEEA-γGlu-Trx-C20 diacid])GGGGEASELSTAALGRPSAELHELATLPRTETGSGSP-NH2
B7: Comparator compound 0668 (peptide)
peptide: H[Aib]EGTFTSDVSSYLEGQAAK([AEEA-AEEA-γGlu-C18 diacid])EFIAWLVRGRGGQEPGQEPK([γGlu-γGlu-C16 diacid])CNTATCATQRLADFLRHSSPNFGAIPSSTNVGSRTY-NH2
modifications: ends and bridges not checked
B8: Compound 0116 (peptide)
peptide: H[Aib]EGTFTSDVSSYLEEQAARK([AEEA-AEEA-γGlu-C18 diacid])FIAWLVRGRK([AEEA-AEEA-γGlu-C18 diacid])GGEASELSTAALGRLSAELHELATLPRTETGSGSP-NH2
B9: Compound 0120 (peptide)
peptide: H[Aib]EGTFTSDVSSYLEEQAAREFIAWLVRGRK([AEEA-AEEA-γGlu-Trx-C20 diacid])GGGGEASELSTAALGRLSAELHELATLPRTETGSGSP-NH2
B10: Compound 0095 (peptide)
peptide: H[Aib]EGTFTSDVSSYLEGQAAK([AEEA-AEEA-γGlu-Trx-C20 diacid])EFIAWLVRGRGGGGGGGGGEASELSTAALGRLSAELHELATLPRTETGSGSP-NH2
B11: Compound 0097 (peptide)
peptide: HGEGTFTSDVSSYLEEQAARK([AEEA-AEEA-γGlu-Decanoyl(10-(4-HOOC-PhO))])FIEWLVRGK([AEEA-AEEA-γGlu-Decanoyl(10-(4-HOOC-PhO))])GEGGGGGEASELSTAALGRLSAELHELATLPRTETGSGSP-NH2
B12: Compound 0099 (peptide)
peptide: HWEGTFTSDVSSYLEEQAARK([AEEA-AEEA-γGlu-Decanoyl(10-(4-HOOC-PhO))])FIEWLVRGK([AEEA-AEEA-γGlu-Decanoyl(10-(4-HOOC-PhO))])GEGEASELSTAALGRLSAELHELATLPRTETGSGSP-NH2
B13: Compound 0100 (peptide)
peptide: HWEGTFTSDVSSYLEEQAARK([AEEA-AEEA-γGlu-Decanoyl(10-(4-HOOC-PhO))])FIEWLVRGK([AEEA-AEEA-γGlu-Decanoyl(10-(4-HOOC-PhO))])GEGGGGGEASELSTAALGRLSAELHELATLPRTETGSGSP-NH2
B14: Compound 0103 (peptide)
peptide: H[Aib]EGTFTSDVSSYLEEQAAREFIAWLVRGRK(Butyryl(4-SO2NHCO(CH2)16Tz))EASELSTAALGRLSAELHELATLPRTETGSGSP-NH2
B15: Compound 0110 (peptide)
peptide: H[Aib]EGTFTSDVSSYLEEQAARK([εLys-AEEA-AEEA-γGlu-C18 diacid])FIAWLVRGK([εLys-AEEA-AEEA-γGlu-C18 diacid])GGGGGGGGGEASELSTAALGRLSAELHELATLPRTETGSGSP-NH2
B16: Compound 0098 (peptide)
peptide: HGEGTFTSDVSSYLEEQAARKFIEWLVRGKGEGGGGGGGGGEASELSTAALGRLSAELHELATLPRTETGSGSP
modifications: Lys21 and Lys30 each (10-(4-carboxyphenoxy)decanoyl-gGlu-Ado-Ado); C-terminal amide
B17: Compound 0101 (peptide)
peptide: B16 peptide with G2W
modifications: Lys21 and Lys30 each (10-(4-carboxyphenoxy)decanoyl-gGlu-Ado-Ado); C-terminal amide
B18: Compound 0114 (peptide)
peptide: H[Aib]EGTFTSDVSSYLEEQAAREFIAWLVRGRK([AEEA-AEEA-γGlu-C18 diacid])GGEASELSTAALGRLSAELHELATLPRTETGSGSP-NH2
B19: Compound 0115 (peptide)
peptide: H[Aib]EGTFTSDVSSYLEEQAAREFIAWLVRGRK([AEEA-AEEA-γGlu-C18 diacid])EASELSTAALGRLSAELHELATLPRTETGSGSP-NH2
B20: Compound 0019 (peptide)
peptide: H[Aib]EGTFTSDVSSYLEGQAAK([AEEA-AEEA-γGlu-C18 diacid])EFIAWLVRGRGGQEPGQEPEASELSTAALGRLSAELHELATLPRTETGSGSP-NH2
B21: Compound 0109 (peptide)
peptide: H[Aib]EGTFTSDVSSYLEEQAARK([AEEA-AEEA-γGlu-C18 diacid])FIAWLVRGK([AEEA-AEEA-γGlu-C18 diacid])GGGGGGGGGEASELSTAALGRLSAELHELATLPRTETGSGSP-NH2
B22: Compound 0102 (peptide)
peptide: H[Aib]EGTFTSDVSSYLEEQAAREFIAWLVRGRK(Butyryl(4-SO2NHCO(CH2)16Tz))ELSTAALGRLSAELHELATLPRTETGSGSP-NH2
B23: Compound 0105 (peptide)
peptide: H[Aib]EGTFTSDVSSYLEEQAARK([AEEA-AEEA-γGlu-C16 diacid])FIEWLVRGK([AEEA-AEEA-γGlu-C16 diacid])GEGQEPGGASELSTAALGRLSAELHELATLPRTETGSGSP-NH2

Biological target: T2, human GLP-1 receptor (human, UniProt P43220 24-463)
Assay: cell-based or functional assay

B1 was tested. Which “Human GLP-1R potency [EC50 (pM)]” value did it give?
The value was 13.1 pM.

For B2, which “Human GLP-1R potency [EC50 (pM)]” value is on record?
The value was 10000 pM.

For B3, which “Human GLP-1R potency [EC50 (pM)]” value is on record?
The value was 45 pM.

With B4 as the binder, how does the “Human GLP-1R potency [EC50 (pM)]” value read?
The value was 852 pM.

How did the “Human GLP-1R potency [EC50 (pM)]” value turn out when B5 was run?
Its value is 510 pM.

For B6, which “Human GLP-1R potency [EC50 (pM)]” value is on record?
Its value is 10.8 pM.

Which “Human GLP-1R potency [EC50 (pM)]” value does the source give for B7 here?
Its value is 455 pM.

Biological target: T1, human amylin-3 (a) receptor
Assay: cell-based or functional assay

B1 was tested. Which “Human AmyR3 potency [EC50 (pM)]” value did it give?
The value was 5660 pM.

With B2 as the binder, how does the “Human AmyR3 potency [EC50 (pM)]” value read?
The value was 10.9 pM.

B3 was tested. Which “Human AmyR3 potency [EC50 (pM)]” value did it give?
Its value is 312 pM.

Which “Human AmyR3 potency [EC50 (pM)]” value does the source give for B4 here?
Its value is 29.6 pM.

B5 was tested. Which “Human AmyR3 potency [EC50 (pM)]” value did it give?
The value was 1550 pM.

How did the “Human AmyR3 potency [EC50 (pM)]” value turn out when B6 was run?
The value was 10000 pM.

Which “Human AmyR3 potency [EC50 (pM)]” value does the source give for B7 here?
The value was 10000 pM.

Biological target: T2, human GLP-1 receptor
Assay: cell-based or functional assay
Remark: another data set of the same source

For B8, which “Human GLP-1R potency [EC50 (pM)]” value is on record?
The value was 1.5 pM.

B9 was tested. Which “Human GLP-1R potency [EC50 (pM)]” value did it give?
The value was 9.1 pM.

How did the “Human GLP-1R potency [EC50 (pM)]” value turn out when B10 was run?
The value was 7.4 pM.

For B11, which “Human GLP-1R potency [EC50 (pM)]” value is on record?
The value was 10 pM.

Which “Human GLP-1R potency [EC50 (pM)]” value does the source give for B12 here?
Its value is 9.6 pM.

How did the “Human GLP-1R potency [EC50 (pM)]” value turn out when B13 was run?
The value was 6.8 pM.

With B14 as the binder, how does the “Human GLP-1R potency [EC50 (pM)]” value read?
The value was 28.1 pM.

B15 was tested. Which “Human GLP-1R potency [EC50 (pM)]” value did it give?
The value was 2.7 pM.

With B16 as the binder, how does the “Human GLP-1R potency [EC50 (pM)]” value read?
The value was 7.9 pM.

For B17, which “Human GLP-1R potency [EC50 (pM)]” value is on record?
The value was 7.1 pM.

With B18 as the binder, how does the “Human GLP-1R potency [EC50 (pM)]” value read?
The value was 1 pM.

With B19 as the binder, how does the “Human GLP-1R potency [EC50 (pM)]” value read?
Its value is 2.2 pM.

Which “Human GLP-1R potency [EC50 (pM)]” value does the source give for B20 here?
Its value is 13.7 pM.

For B21, which “Human GLP-1R potency [EC50 (pM)]” value is on record?
The value was 3.2 pM.

B22 was tested. Which “Human GLP-1R potency [EC50 (pM)]” value did it give?
The value was 14.7 pM.

How did the “Human GLP-1R potency [EC50 (pM)]” value turn out when B23 was run?
Its value is 1.1 pM.

Biological target: T1, human amylin-3 (a) receptor
Assay: cell-based or functional assay
Remark: another data set of the same source

How did the “Human AmyR3 potency [EC50 (pM)]” value turn out when B8 was run?
Its value is 21.7 pM.

How did the “Human AmyR3 potency [EC50 (pM)]” value turn out when B9 was run?
The value was 10.6 pM.

B10 was tested. Which “Human AmyR3 potency [EC50 (pM)]” value did it give?
The value was 6.6 pM.

With B11 as the binder, how does the “Human AmyR3 potency [EC50 (pM)]” value read?
The value was 93.1 pM.

Which “Human AmyR3 potency [EC50 (pM)]” value does the source give for B12 here?
Its value is 44.9 pM.

Which “Human AmyR3 potency [EC50 (pM)]” value does the source give for B13 here?
Its value is 30.4 pM.

B14 was tested. Which “Human AmyR3 potency [EC50 (pM)]” value did it give?
The value was 11.6 pM.

How did the “Human AmyR3 potency [EC50 (pM)]” value turn out when B15 was run?
The value was 40.7 pM.

With B16 as the binder, how does the “Human AmyR3 potency [EC50 (pM)]” value read?
Its value is 15.6 pM.

With B17 as the binder, how does the “Human AmyR3 potency [EC50 (pM)]” value read?
The value was 10.2 pM.

Which “Human AmyR3 potency [EC50 (pM)]” value does the source give for B18 here?
Its value is 17.5 pM.

With B19 as the binder, how does the “Human AmyR3 potency [EC50 (pM)]” value read?
The value was 22.8 pM.

Which “Human AmyR3 potency [EC50 (pM)]” value does the source give for B20 here?
Its value is 26.5 pM.

Which “Human AmyR3 potency [EC50 (pM)]” value does the source give for B21 here?
Its value is 19.1 pM.

With B22 as the binder, how does the “Human AmyR3 potency [EC50 (pM)]” value read?
Its value is 9.8 pM.

With B23 as the binder, how does the “Human AmyR3 potency [EC50 (pM)]” value read?
Its value is 30.8 pM.

Biological target: T1, human amylin-3 (a) receptor
Assay: cell-based or functional assay
Remark: another data set of the same source

How did the “Human AmyR3 potency [EC50 (pM)]” value turn out when EASELSTAALGRLSAELHELATLPRTETGSGSP-NH2 (not fully specified) [Compound 1806] was run?
Its value is 5 pM.

Source: patent US20260132182A1 (published 2026)
